Substrate in series [1]: NC(=O)OP(=O)(O)O
Put plainly: purified protein, by the assay type. The settings on record: other: WT, CP variable, 10 mM Asp, absence of UMP; pH 8.3.

Series [2] deals with the molecule itself. Put plainly: SEC-MALS; 400 ul of purified protein at 1.4 mg/ml on Superdex 200 10/300 in GF buffer (20 mM Tris pH 7.0, 0.1 M NaCl, 2% glycerol, 0.2 mM TCEP), 0.5 ml/min; self-association: homotrimer. (In general: In gel filtration, larger molecules generally elute earlier.)
Substrate in series [3]: NC(=O)OP(=O)(O)O
Put plainly: Colorimetric ATC activity assay, atATC F161A. The series is classed as biochemical, Arabidopsis thaliana. The note with it: other: F161A, CP variable, 10 mM Asp; pH 8.3.
Method: Activity was assayed by a colorimetric method[64] adapted to a 96-well plate format[24]. […] Reagent B is light sensitive and was stored at 4 °C in the dark. The color reagents were gently mixed and stored at 4 °C in the dark until added to the sample. Reaction tubes were closed, boiled at 95 °C for 15 min, and kept in the dark for 30 min before measuring the absorbance at 450 nm in a Tecan infinite m200 microplate reader (Tecan). […] Data analysis was done with GraphPad. In the absence of inhibitors, WT kinetics obey Michaelis-Menten equation v = [Vmax·X/K0.5 + X], where X is substrate concentration and K0.5 is the substrate concentration at which the initial rate (v) is one-half of the maximum velocity (Vmax)]. […] Protein concentration in the assay was 0.3 µM (0.01 mg ml^−1) both for WT and F161A.

Series [4] concerns the molecule itself. Put plainly: crystal structure; X-ray crystal structures of the trimer (with UMP, apo, with PALA, with PALA + CP, with CP; F161A with UMP or PALA); sitting-drop vapor diffusion at room temperature, PEG 3350 conditions, data at 100 K.

Positions count from the first letter of the chain named. Numbers in names are those of the source.

B1: Arabidopsis aspartate transcarbamoylase, construct spanning aa 82-390 (atATC) (enzyme, Arabidopsis thaliana, UniProt P49077 82-390, looked up)
chain: FELSDVIEGKQFDREMLSAIFDVAREMEKIEKSSSQSEILKGYLMATLFYEPSTRTRLSFESAMKRLGGEVLTTENAREFSSAAKGETLEDTIRTVEGYSDIIVMRHFESGAARKAAATANIPVINAGDGPGEHPTQALLDVYTIQSEIGKLDGISVALVGDLANGRTVRSLAYLLAKFKDVKIYFVSPEIVKMKDDIKDYLTSSGVEWEESSDLMEVASKCDVVYQTRIQRERFGERLDLYEAARGKYIVDKDLLGVMQKKAIIMHPLPRLDEITADVDADPRAAYFRQAKNGLFIRMALLKLLLVGW
notes: Aspartate transcarbamoylase (ATC; pyrB; At3g20330) of Arabidopsis thaliana, aa 82-390 of the 390 aa precursor protein with an N-terminal chloroplast transit peptide; amplified from cDNA; No cleavage of the tag is described, and the text speaks of the size of purified atATC 'excluding the 2.6 kDa fusion tag', so the tag was probably kept; It is probably a His tag (Ni-sepharose purification); The …
In the case of B1, the K0.5 in series [1] amounted to 0.46 ± 0.10 mM. Further, the stoichiometry N (usually the number of molecules, sites or subunits per partner or assembly) in series [2] worked out at 3.

B2: atATC mutant F161A (enzyme, Arabidopsis thaliana, UniProt P49077 82-390, looked up)
chain: B1 chain with F80A
notes: Aspartate transcarbamoylase (ATC; pyrB; At3g20330) of Arabidopsis thaliana, aa 82-390 of the 390 aa precursor protein, with F161 replaced by Ala; Made by site-directed mutagenesis of the atATC construct; same tag and purification as m1; also called atATC-F161A; source: E. coli BLR(DE3)-pLysS, purified (Ni-sepharose, size-exclusion chromatography on Superdex 75); not shown: fusion tag (2.6 kDa)
For the protein B2, the K0.5 in series [3] is 0.62 ± 0.13 mM. In series [4], the binding result is listed as “binds”.

These data come from PMC7878868, “Mechanisms of feedback inhibition and sequential firing of active sites in plant aspartate transcarbamoylase” (Nature Communications, 2021).
